The numbers were not newly measured in publication PMC3883350, which cites them from elsewhere.

Like-named read-outs stand apart in the source and are kept apart here.

The target in data set [1] is VIP (Homo sapiens) (UniProt P01282).
Data set [2] has as its target PACAP (Homo sapiens) (UniProt P18509).
Data set [3] deals with VIP (Homo sapiens) (UniProt P01282). The source holds these as a separate data set.
For data set [4], the target named is PACAP (Homo sapiens) (UniProt P18509). This is another data set of the same source.
Data set [5] has the same target. The source holds these as a separate data set.
For data set [6], the target named is VIP (Homo sapiens) (UniProt P01282). This is another data set of the same source.

Sequence of UniProt P18509 (P18509 82-129): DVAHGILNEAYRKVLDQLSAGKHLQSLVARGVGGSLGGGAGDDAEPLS
Sequence of UniProt P01282 (P01282 125-152): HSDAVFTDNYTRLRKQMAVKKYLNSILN

With PAC1 (from UniProt P41586), the Kd was > 500 nM in the data set with VIP (Homo sapiens) [1] and 0.5 nM with PACAP (Homo sapiens) [2].
For VPAC1 (from UniProt P32241), the Kd with VIP (Homo sapiens) [3] and with PACAP (Homo sapiens) [4] was 1 nM throughout.
In the case of VPAC2 (from UniProt P41587), the Kd with PACAP (Homo sapiens) [5] and with VIP (Homo sapiens) [6] was 1 nM each time.
